# Measured values published in US20250277030A1 (Zymeworks, published 2025).
# T1: human sodium-dependent phosphate transporter 2B (NaPi2b) (human, UniProt O95436 1-690)
# T1 construct: UniProt ID is given as 095436 [sic]; also called hNaPi2b; Hu NaPi2b
# T1 sequence: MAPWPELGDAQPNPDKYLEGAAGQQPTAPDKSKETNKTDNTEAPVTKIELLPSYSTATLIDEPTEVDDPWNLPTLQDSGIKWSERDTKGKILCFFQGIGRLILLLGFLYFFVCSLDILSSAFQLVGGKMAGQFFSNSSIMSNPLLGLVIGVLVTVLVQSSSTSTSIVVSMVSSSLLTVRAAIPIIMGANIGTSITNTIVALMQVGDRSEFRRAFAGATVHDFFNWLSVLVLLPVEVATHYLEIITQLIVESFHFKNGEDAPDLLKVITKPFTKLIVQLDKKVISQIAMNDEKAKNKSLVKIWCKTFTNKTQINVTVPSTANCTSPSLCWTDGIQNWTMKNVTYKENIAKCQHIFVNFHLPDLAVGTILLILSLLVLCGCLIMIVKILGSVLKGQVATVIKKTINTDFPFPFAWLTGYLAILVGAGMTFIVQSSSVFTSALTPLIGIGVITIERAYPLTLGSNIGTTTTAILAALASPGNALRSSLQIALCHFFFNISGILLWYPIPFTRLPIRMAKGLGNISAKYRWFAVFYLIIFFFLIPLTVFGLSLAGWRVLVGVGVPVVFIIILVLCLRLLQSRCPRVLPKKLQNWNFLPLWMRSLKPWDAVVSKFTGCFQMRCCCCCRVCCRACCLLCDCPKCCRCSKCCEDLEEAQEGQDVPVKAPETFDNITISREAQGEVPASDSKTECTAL
# T2: mouse NaPi2b (mouse, UniProt Q9DBP0 1-697)
# T2 construct: Transiently expressed on HEK293-6e cells; also called Ms NaPi2b
# T2 sequence: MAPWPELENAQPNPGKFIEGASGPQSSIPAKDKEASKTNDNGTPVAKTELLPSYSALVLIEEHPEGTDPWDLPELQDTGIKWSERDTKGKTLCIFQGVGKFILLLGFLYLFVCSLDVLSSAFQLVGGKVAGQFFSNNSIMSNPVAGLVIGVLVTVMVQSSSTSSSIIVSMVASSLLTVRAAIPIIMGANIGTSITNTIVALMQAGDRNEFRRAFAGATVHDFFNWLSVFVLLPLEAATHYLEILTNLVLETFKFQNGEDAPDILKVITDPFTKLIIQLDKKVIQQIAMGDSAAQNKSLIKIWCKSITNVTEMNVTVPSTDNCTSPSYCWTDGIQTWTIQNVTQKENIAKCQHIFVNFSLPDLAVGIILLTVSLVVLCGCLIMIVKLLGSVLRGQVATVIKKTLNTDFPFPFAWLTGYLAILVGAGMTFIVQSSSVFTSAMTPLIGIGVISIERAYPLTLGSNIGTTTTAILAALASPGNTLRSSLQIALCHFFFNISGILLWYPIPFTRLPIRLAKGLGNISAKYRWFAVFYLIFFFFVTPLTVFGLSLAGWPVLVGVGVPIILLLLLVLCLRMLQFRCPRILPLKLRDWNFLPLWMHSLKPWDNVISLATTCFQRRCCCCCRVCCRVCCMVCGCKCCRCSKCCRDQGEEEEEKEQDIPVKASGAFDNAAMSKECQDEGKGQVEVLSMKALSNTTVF
# T3: cynomolgus monkey NaPi2b (cynomolgus monkey, UniProt O95436 1-690 (human entry))
# T3 construct: Transiently expressed on HEK293-6e cells; also called Cyno NaPi2b
# T3 chain: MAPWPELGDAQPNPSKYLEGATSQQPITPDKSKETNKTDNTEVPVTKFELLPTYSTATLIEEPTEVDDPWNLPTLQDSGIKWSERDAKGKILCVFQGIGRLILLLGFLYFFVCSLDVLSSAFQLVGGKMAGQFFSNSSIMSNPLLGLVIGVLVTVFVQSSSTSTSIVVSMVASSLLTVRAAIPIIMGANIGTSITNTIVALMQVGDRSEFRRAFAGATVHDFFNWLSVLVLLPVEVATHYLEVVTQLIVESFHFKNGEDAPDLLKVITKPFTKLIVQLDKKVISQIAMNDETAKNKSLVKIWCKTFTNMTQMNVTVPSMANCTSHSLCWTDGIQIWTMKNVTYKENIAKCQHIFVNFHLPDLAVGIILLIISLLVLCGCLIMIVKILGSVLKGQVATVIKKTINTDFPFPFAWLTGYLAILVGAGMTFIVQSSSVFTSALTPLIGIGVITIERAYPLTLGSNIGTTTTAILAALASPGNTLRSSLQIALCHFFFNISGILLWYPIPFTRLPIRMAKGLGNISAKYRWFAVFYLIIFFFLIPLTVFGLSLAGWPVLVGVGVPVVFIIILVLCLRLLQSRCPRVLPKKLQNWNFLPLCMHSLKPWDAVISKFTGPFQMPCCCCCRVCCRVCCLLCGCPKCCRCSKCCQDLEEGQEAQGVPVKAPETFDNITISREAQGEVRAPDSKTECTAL
# B1: v38591 humanized anti-NaPi2b antibody (antibody, human IgG1, kappa)
# heavy: not shown
# light: DVQMTQSPSSLSASVGDRVTITCRASQDVYSYLNWYQQKPGKAVKLLIYYTSRLQSGVPSRFSGSGSGTDYTLTISSLQPEDFATYYCQQYNIFPWTFGQGTKLEIKRTVAAPSVFIFPPSDEQLKSGTASVVCLLNNFYPREAKVQWKVDNALQSGNSQESVTEQDSKDSTYSLSSTLTLSKADYEKHKVYACEVTHQGLSSPVTKSFNRGEC
# notes: also called humanized v38591 anti-NaPi2b (SLC34A2) variant
# B2: v22277, palivizumab (anti-RSV) negative control (antibody, human IgG1, kappa)
# heavy 1: GQVTLRESGPALVKPTQTLTLTCTFSGFSLSTSGMSVGWIRQPPGKALEWLADIWWDDKKDYNPSLKSRLTISKDTSKNQVVLKVTNMDPADTATYYCARSMITNWYFDVWGAGTTVTVSSASTKGPSVFPLAPSSKSTSGGTAALGCLVKDYFPEPVTVSWNSGALTSGVHTFPAVLQSSGLYSLSSVVTVPSSSLGTQTYICNVNHKPSNTKVDKKVEPKSCDKTHTCPPCPAPELLGGPSVFLFPPKPKDTLMISRTPEVTCVVVDVSHEDPEVKFNWYVDGVEVHNAKTKPREEQYNSTYRVVSVLTVLHQDWLNGKEYKCKVSNKALPAPIEKTISKAKGQPREPQVYVYPPSRDELTKNQVSLTCLVKGFYPSDIAVEWESNGQPENNYKTTPPVLDSDGSFALVSKLTVDKSRWQQGNVFSCSVMHEALHNHYTQKSLSLSPG
# heavy 2: not shown
# light: GDIQMTQSPSTLSASVGDRVTITCKSQLSVGYMHWYQQKPGKAPKLLIYDTSKLASGVPSRFSGSGSGTEFTLTISSLQPDDFATYYCFQGSGYPFTFGGGTKLEIKRTVAAPSVFIFPPSDEQLKSGTASVVCLLNNFYPREAKVQWKVDNALQSGNSQESVTEQDSKDSTYSLSSTLTLSKADYEKHKVYACEVTHQGLSSPVTKSFNRGEC
# notes: Heterodimeric Fc form of palivizumab (clones CL_#11009, CL_#11010, CL_#16635); also called neg control
# Columns and labels:
# [1] = molecular target: T1, human sodium-dependent phosphate …; assay: flow cytometry on IGROV-1 cells (endogenous NaPi2b), 24 h at 4 C, anti-human IgG Fc AF647 detection
# Protocol: (§1) Briefly, cells were seeded at 50,000 cells/well in conical-bottom 96-well plates and treated with test antibody for 24 hours at 4° C. to prevent internalization. […] Following incubation, cells were washed and stained with anti-Human IgG Fc AF647 conjugate (Jackson Immuno Research Labs, West Grove, PA; Cat. No. 109-605-098) at 4° C. for 30 min. Following incubation and washing, fluorescence was detected by flow cytometry on a BD LSRFortessa™ Cell Analyzer (BD Biosciences, Franklin Lake, NJ) with 1,000 minimum events collected per well. The AF647/APC-A GeoMean (fluorescence signal geometric mean, proportional to anti-Human AF647 binding) was calculated for the live cell population using FlowJo™ Version 10.8.1 (BD Biosciences, Franklin Lake, NJ) and plotted for each test antibody using GraphPad Prism Version 9 (GraphPad Software, San Diego, CA).
# (§2) The ability of the humanized antibody variants v38591 and v29456 to bind to NaPi2b expressed on cells was assessed on endogenous NaPi2b-expressing tumor cell lines IGROV-1 (ovarian adenocarcinoma) and TOV-21G (ovarian carcinoma) by flow cytometry.
# (§3) Cellular binding was performed according to methods described in Example 13.
# [2] = molecular target: T1, human sodium-dependent phosphate …; assay: flow cytometry, TOV-21G cells (endogenous NaPi2b); apparent Kd
# Protocol: as §1, §2, §3
# [3] = molecular target: T1, human sodium-dependent phosphate …; assay: flow cytometry, IGROV-1 cells (endogenous NaPi2b); apparent Kd
# Protocol: as §1, §2, §3
# FcgR1A = molecular target: T4, FcgR1A (human, UniProt P12314 16-374); assay: Membrane Proteome Array screen, flow cytometry on HEK293T cells each expressing one of over 6000 human membrane proteins
# T4 construct: whole, on cells
# T4 sequence (P12314 16-374): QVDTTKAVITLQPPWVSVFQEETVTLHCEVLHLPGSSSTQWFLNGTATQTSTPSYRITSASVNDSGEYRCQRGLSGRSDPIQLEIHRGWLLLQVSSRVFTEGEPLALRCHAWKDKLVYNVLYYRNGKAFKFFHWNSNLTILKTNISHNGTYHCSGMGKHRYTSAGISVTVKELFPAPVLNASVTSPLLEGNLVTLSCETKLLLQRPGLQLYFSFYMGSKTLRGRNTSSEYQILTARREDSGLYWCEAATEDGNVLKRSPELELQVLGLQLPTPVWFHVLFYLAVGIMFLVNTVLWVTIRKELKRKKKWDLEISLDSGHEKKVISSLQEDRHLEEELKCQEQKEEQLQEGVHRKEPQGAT
# Protocol: Briefly, the study consisted of three phases: phase (1) determination of assay screening conditions, phase (2) membrane proteome array (library) screen and phase (3) protein target validation. […] In phase (3), each protein target hit from the screen stage (potential off-target interactions) was assessed in titration experiment using flow cytometry.
# [4] = molecular target: T1, human sodium-dependent phosphate …; assay: flow cytometry, HEK293-6e cells transfected with human NaPi2b; apparent Kd
# Protocol: The binding cross-reactivity of humanized antibody variant v38591 to human NaPi2b, NaPi2a, and NaPi2c was assessed by flow cytometry using HEK293-6e transfected cells.
# Following transfection, cells were seeded at 50,000 cells/well in conical-bottom 96-well plates and treated with test antibody for 24 hours at 4° C. to prevent internalization. Following incubation, cells were washed and stained with anti-Human IgG Fc AF647 conjugate (Jackson Immuno Research Labs, West Grove, PA; Cat. No. 109-605-098) or anti-Rabbit IgG F(ab″)2 AF647 conjugate (Jackson Immuno Research Labs, West Grove, PA; Cat. No. 111-605-047). Following incubation and washing, fluorescence was detected by flow cytometry on a BD LSRFortessa™ Cell Analyzer (BD Biosciences, Franklin Lake, NJ) with 1,000 minimum events collected per well. The AF647/APC-A GeoMean (fluorescence signal geometric mean, proportional to anti-Human AF647 binding) was calculated for the live cell population using FlowJo™ Version 10.8.1 (BD Biosciences, Franklin Lake, NJ) and plotted for each test antibody using GraphPad Prism Version 9 (GraphPad Software, San Diego, CA).
# [5] = molecular target: T1, human sodium-dependent phosphate …; assay: flow cytometry on TOV-21G cells (endogenous NaPi2b), 24 h at 4 C, anti-human IgG Fc AF647 detection
# Protocol: as §1, §2, §3
# mouse NaPi2b = molecular target: T2, mouse NaPi2b; assay: flow cytometry on HEK293-6e cells transiently expressing mouse NaPi2b, 4 C, anti-human IgG Fc AF647 detection
# cynomolgus monkey NaPi2b = molecular target: T3, cynomolgus monkey NaPi2b; assay: flow cytometry on HEK293-6e cells transiently expressing cynomolgus NaPi2b, 4 C, anti-human IgG Fc AF647 detection
binder,measurement,setting,value
B1,EC50 (read off the curve),[1],~1 nM
same,Kd,[2],0.74 nM
same,Kd,[3],1.39 nM
same,binding result,FcgR1A,binds
same,Kd,[4],1.68 nM
same,EC50 (read off the curve),[5],~0.7 nM
B2,binding result,mouse NaPi2b,no binding (tested: about 200 nM)
same,binding result,cynomolgus monkey NaPi2b,no binding (tested: about 200 nM)
